Experimental findings from PMC5551698 (The Journal of Cell Biology, 2017) are described below.

The target in the assay is His-CRMP-1 (human CRMP-1) (human, UniProt Q14194 1-572). Nature of the assay: pull-down.
His-CRMP-1 (human CRMP-1), sequence (Q14194 whole entry): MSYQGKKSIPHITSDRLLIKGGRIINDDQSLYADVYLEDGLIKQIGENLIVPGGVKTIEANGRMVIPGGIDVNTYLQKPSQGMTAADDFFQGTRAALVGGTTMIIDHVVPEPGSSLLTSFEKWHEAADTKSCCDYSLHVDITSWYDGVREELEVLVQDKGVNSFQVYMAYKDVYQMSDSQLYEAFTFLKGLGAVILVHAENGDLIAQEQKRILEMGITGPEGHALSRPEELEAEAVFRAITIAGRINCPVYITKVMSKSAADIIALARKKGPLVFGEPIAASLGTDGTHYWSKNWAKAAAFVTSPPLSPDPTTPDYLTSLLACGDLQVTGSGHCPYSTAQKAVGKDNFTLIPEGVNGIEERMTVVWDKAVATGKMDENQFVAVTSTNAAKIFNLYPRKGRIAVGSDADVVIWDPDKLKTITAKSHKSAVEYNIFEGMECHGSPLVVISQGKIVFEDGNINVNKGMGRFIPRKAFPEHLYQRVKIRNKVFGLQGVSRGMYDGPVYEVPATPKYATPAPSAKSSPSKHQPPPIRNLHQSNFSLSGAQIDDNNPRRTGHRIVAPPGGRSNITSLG

B1: MBP-EVL (human EVL, full length) (natural protein, UniProt Q9UI08 1-416, looked up)
chain: MSEQSICQARASVMVYDDTSKKWVPIKPGQQGFSRINIYHNTASNTFRVVGVKLQDQQVVINYSIVKGLKYNQATPTFHQWRDARQVYGLNFASKEEATTFSNAMLFALNIMNSQEGGPSSQRQVQNGPSPDEMDIQRRQVMEQHQQQRQESLERRTSATGPILPPGHPSSAASAPVSCSGPPPPPPPPVPPPPTGATPPPPPPLPAGGAQGSSHDESSMSGLAAAIAGAKLRRVQRPEDASGGSSPSGTSKSDANRASSGGGGGGLMEEMNKLLAKRRKAASQSDKPAEKKEDESQMEDPSTSPSPGTRAASQPPNSSEAGRKPWERSNSVEKPVSSILSRTPSVAKSPEAKSPLQSQPHSRMKPAGSVNDMALDAFDLDRMKQEILEEVVRELHKVKEEIIDAIRQELSGISTT
As to B1, the Kd worked out at 2 µM.

In general, Kd refers to the free concentration of one partner at which half of the binding sites on the other are occupied at equilibrium, for simple one-to-one binding. High values mean weaker binding, low ones tighter binding.
